Assay results from PMC9834408, “The SPOC domain is a phosphoserine binding module that bridges transcription machinery with co- and post-transcriptional regulators” (Nature Communications, 2023).

How the values were obtained:
[1] = target: WTAP peptide (first 19 N-terminal amino acids) phosphorylated at S14 (UniProt Q15007); test: fluorescence polarisation; fluorescence anisotropy; 90 nM labelled peptide (Atto-488 on CTD peptides, FAM on NCoR and FMR1 peptides) titrated with increasing concentrations of SPOC domain; 20 °C; 25 mM Tris-Cl pH 7.4, 25 mM NaCl, 1 mM DTT; three independent dilution series
[2] = target: 2×S5P CTD diheptapeptide; test: as above

SHARP SPOC (3496–3664 aa), sequence (Q96T58 3496-3664): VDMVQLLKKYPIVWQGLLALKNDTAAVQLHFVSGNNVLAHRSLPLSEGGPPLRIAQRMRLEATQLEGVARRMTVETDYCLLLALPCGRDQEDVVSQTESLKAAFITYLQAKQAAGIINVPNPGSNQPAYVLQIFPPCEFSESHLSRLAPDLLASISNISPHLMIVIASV

Substance: RBM15 SPOC (775–960 aa) (from UniProt Q96T37 775-960) (domain or fragment)
- Kd [1]: 21.5 µM

Substance: SHARP SPOC (3496–3664 aa) (from UniProt Q96T58 3496-3664) (domain or fragment)
- Kd [2]: 20.6 µM
